From US20160208003A1 (AFFITECH RESEARCH, published 2016)

How the values were obtained:
[1] = target: T1, human CC chemokine receptor 4 (CCR4) (human, UniProt P51679 1-360); experiment: cell-based or functional assay
T1 sequence (looked up): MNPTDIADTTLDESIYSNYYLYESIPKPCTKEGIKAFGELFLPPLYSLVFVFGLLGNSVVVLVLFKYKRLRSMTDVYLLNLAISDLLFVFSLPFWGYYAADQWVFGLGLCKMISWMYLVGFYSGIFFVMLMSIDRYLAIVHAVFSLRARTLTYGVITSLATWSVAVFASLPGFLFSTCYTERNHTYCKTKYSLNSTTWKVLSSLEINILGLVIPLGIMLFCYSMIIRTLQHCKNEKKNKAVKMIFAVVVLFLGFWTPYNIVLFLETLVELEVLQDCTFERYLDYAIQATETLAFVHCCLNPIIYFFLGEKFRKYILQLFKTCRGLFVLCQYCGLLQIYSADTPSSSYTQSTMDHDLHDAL

[2] = target: T1, human CC chemokine receptor 4 (CCR4); experiment: flow cytometry, IgG titration on DT-40 CCR4+ cells, anti-human-FITC, MFI [a]
Experimental: The quality of the specific binding to DT40+ cells was tested for 9E1 D and 9E10J in scFv or IgG format in a titration experiment.
Alternatively, 9E1D and 9E10J were converted into the full-length human IgG1 and tested for cell binding. The DT40+CCR4 and DT40 cells were harvested from culture flasks, washed 2 times with PBS (400×g, 5 min, 4° C.) and resuspended in PBS containing 0.2% BSA and 0.09% NaN₃. 1×10⁵ cells per well were aliquoted into V-shaped 96-well plates (Greiner Bio-One, Frikenhausen, Germany). Cells were centrifuged (400×g, 5 min, 4° C.) and resuspended in a 1:5 dilution series of IgG starting on 10 μg/ml (50 μl/well). After 1 hour incubation at 4° C., the cells were washed three times with 150 μl PBS with 0.2% BSA and 0.09% NaN₃ and stained with 2.5 μg/ml RPE conjugated goat anti-human IgG (AbDSerotec, Düsseldorf, Germany) or 2.5 μg/ml anti human IgG Fc (goat polyclonal aff. pur) FITC (Sigma Aldrich) for 45 minutes at 4° C. Cells were washed, resuspended in 200 μl PBS with 0.2% BSA and 0.09% NaN₃, and transferred to a U-shaped 96 well Costar (Corning, Schiphol-Rijik, The Netherlands) plate for flow cytometry using an Easy Cyte device (Guava Technologies, Hayward, Calif., USA) or FACS Canto II flow cytometer (BD Biosciences, Heidelberg, Germany).

[3] = target: T1, human CC chemokine receptor 4 (CCR4); experiment: flow cytometry, saturation titration of scFv cross-linked via myc-tag on DT-40 CCR4+ cells; one site-specific binding fit
Experimental: DT 40 and CCRF-CEM cells were cultured as described in Example 2. The DT40 CCR4+ and DT40 (CCR4−) cells were harvested from culture flasks, washed 2 times with PBS (400×g, 5 min, 4° C.) and resuspended in PBS containing 0.2% BSA and 0.09% NaN₃. 1×10⁵ cells per well were aliquoted into V-shaped 96-well plates (Greiner Bio-One, Frikenhausen, Germany). […] […] Cells were washed, resuspended in 200 μl PBS with 0.2% BSA and 0.09% NaN₃, and transferred to a U-shaped 96 well Costar (Corning, Schiphol-Rijik, The Netherlands) plate for flow cytometry using an Easy Cyte device (Guava Technologies, Hayward, Calif., USA).

[4] = target: T1, human CC chemokine receptor 4 (CCR4); experiment: competition flow cytometry on CCRF-CEM cells: unlabelled competitor against ca. 20 nM biotinylated MDC, streptavidin-PE [d]
Experimental: The competition binding assays were performed with biotinylated MDC or biotinylated TARC on DT-40-CCR4+ and CCRF-CEM cells. DT40 and CCRF-CEM cells were cultured as described in Example 2. TARC and MDC were biotinylated using standard procedures. The biotinylation process causes some losses, so the concentrations of biotinylated MDC and TARC recited herein are approximate.
The cells were harvested from culture flasks, washed 2 times with PBS (400×g, 5 min, 4° C.) and resuspended in PBS containing 0.2% BSA and 0.09% NaN3. 1×10^5 cells per well were aliquoted into V-shaped 96-well plates (Greiner Bio-One, Frikenhausen, Germany). Cells were centrifuged (400×g, 5 min, 4° C.) and resuspended in 50 μl IgG, single chain or unlabeled ligand (1:10 dilution series starting on 100/500/26, 4 μg/ml) mixed with a fixed concentration of biotinylated ligand (10 or 20 nM, see legend to FIG. 24). The cells were incubated for 2 hours at 4° C. and mixed with a pipette every 45 min. The cells were washed three times with 150 μl PBS with 0.2% BSA and 0.09% NaN3 and stained with 3 μg/ml streptavidin PE (BD Biosciences) for 45 minutes at 4° C. […] Apparent binding affinities (KD) were calculated according to the following equation derived from previously described methods (Kipriyanov et al, 1997b; Schodin & Kranz, 1993): […]

[5] = target: T1, human CC chemokine receptor 4 (CCR4); experiment: IgG1 expressed from pLNO, purified; method not told there

B1: defucosylated 9E10J IgG (antibody, V domains shown)
VH: QVQLVQSGAEVKKPGSSVKVSCKASGGTFSSYAISWVRQAPGQGLEWMGGIIPIFGTANYAQKFQGRVTMTRDTSTSTVYMELSSLRSEDTAVYYCARRGGSYFDYWGQGTLVTVSS
VL: SYVLTQPPSASGTPGQSVTISCSGSTSNIGSHYVFWYQQLPGTAPRLLIYRNHQRPSGVPDRLSGSKSGTSASLAISGLRSEDEADYYCAVWDDTLSGWVFGGGTKLTVLG
modifications: Fc glycans defucosylated (IgG produced in the presence of Kifunensine, 100 ng/ml)
[1]
  ADCC of CCRF-CEM cells, EC50 (mean, N=4): 2.1 ng/mL

B2: 9E1D IgG (full length human IgG1, lambda) (antibody, V domains shown)
VH: QVQLVQSGAEVKKPGSSVKVSCKASGGTFSNYAISWVRQAPGQGLEWMGGIIPIFGTANYAQKFQGRVTITADESTSTAYMELSSLRSEDTAVYYCARRGGSYFDYWGQGTLVTVSS
VL: QPVLTQPPSASGTPGQRVTISCSGGGSNIGRRFVNWYQQLPGTAPKLLIYRNNQRPSGVPDRFSGSKSGTSASLVISGLRSEDEADYYCAAWDDSLSGWVFGGGTKLTVLG
[2]
  binding result: binds

B3: 9E scFv (scFv)
scFv: QVQLVQSGAEVKKPGSSVKVSCKASGGTFSNYAISWVRQAPGQGLEWMGGIIPIFGTANYAQKFQGRVTITADESTSTAYMELSSLRSEDTAVYYCARRGGSYFDYWGQGTLVTVSSKLSGSASAPKLEEGEFSEARVSYVLTQPPSASGTPGQSVTISCSGSTSNIGSHYVFWYQQLPGTAPRLLIYRNHQRPSGVPDRLSGSKSGTSASLAISGLRSEDEADYYCAVWDDTLSGWVFGGGTKLTVLAAAGSEQKLISEEDLNSHHHHHH
notes: For staining the scFv was pre-incubated with an anti-c-myc antibody with human Fc (cross-linked, dimer-like); also called scFv 9E
[3]
  Kd: 4.95 nM

B4: 9E10J scFv (scFv)
scFv: QVQLVQSGAEVKKPGSSVKVSCKASGGTFSSYAISWVRQAPGQGLEWMGGIIPIFGTANYAQKFQGRVTMTRDTSTSTVYMELSSLRSEDTAVYYCARRGGSYFDYWGQGTLVTVSSKLSGSASAPKLEEGEFSEARVSYVLTQPPSASGTPGQSVTISCSGSTSNIGSHYVFWYQQLPGTAPRLLIYRNHQRPSGVPDRLSGSKSGTSASLAISGLRSEDEADYYCAVWDDTLSGWVFGGGTKLTVLAAAGSEQKLISEEDLNSHHHHHH
notes: also called scFv 9E10J
[4]
  IC50 (read off the curve): ~200 nM
[3]
  Kd: 1.17 nM

B5: 11F IgG (full length human IgG1, kappa) (antibody, V domains shown)
VH: not shown
VL: ETTLTQSPGTLSLSPGEGVTLSCRASQSVNRRYLAWYQQKPGQAPRLLIYGASSRATGIPDRFSGSGSGTDFTLTISRLEPEDFAVYYCQQYGSSPLTFGGGTKVEIKR
[5]
  binding result: binds

B6: 9E1D scFv (scFv)
scFv: QVQLVQSGAEVKKPGSSVKVSCKASGGTFSNYAISWVRQAPGQGLEWMGGIIPIFGTANYAQKFQGRVTITADESTSTAYMELSSLRSEDTAVYYCARRGGSYFDYWGQGTLVTVSSKLSGSASAPKLEEGEFSEARVQPVLTQPPSASGTPGQRVTISCSGGGSNIGRRFVNWYQQLPGTAPKLLIYRNNQRPSGVPDRFSGSKSGTSASLVISGLRSEDEADYYCAAWDDSLSGWVFGGGTKLTVLAAAGSEQKLISEEDLNSHHHHHH
notes: also called scFv 9E1D
[3]
  Kd: 5.22 nM
